For one substance, Kd results are on record in publication PMC5113989.

Holding throughout (test): KinExA flow fluorimetry (depletion of 5-Helix by cells)
Assay [1] addresses C34-conjugated CXCR4 (gp41 HR2 peptide C34 fused to the amino terminus of CXCR4) (HIV-1 (HxB2 numbering) | not stated) (UniProt P04578).
Assay [2] concerns the target C34-conjugated CCR5 (gp41 HR2 peptide C34 fused to the amino terminus of CCR5) (HIV-1 (HxB2 numbering) | human (genomic DNA of the Jurkat T cell line)) (UniProt P04578).
Assay [3] deals with C34-conjugated CXCR4 (gp41 HR2 peptide C34 fused to the amino terminus of CXCR4) (HIV-1 (HxB2 numbering) | not stated) (UniProt P04578). This is another data set of the same source.
For assay [4], the target named is C34-conjugated CCR5 (gp41 HR2 peptide C34 fused to the amino terminus of CCR5) (HIV-1 (HxB2 numbering) | human (genomic DNA of the Jurkat T cell line)) (UniProt P04578). This is another data set of the same source.

Like-named read-outs stand apart in the source and are kept apart here.

As usually defined, the Kd is a measure of binding affinity in units of concentration. “rhodamine-conjugated 5-Helix (5-Helix variant containing a C-terminal Cys residue)”: the Kd was 0.004 nM in assay [1], 0.013 nM in assay [2], less than 0.015 nM in assay [3] and less than 0.015 nM in assay [4].
